# Reference: patent US20120220530A1
# Columns and labels:
# [1] = target: shFcRn heterodimer produced by GeneArt AG (human) (UniProt P55899); experiment: SPR (Biacore), immobilized shFcRn
# [2] = target: soluble mouse FcRn (smFcRn) (mouse) (UniProt Q61559); experiment: SPR, FcRn immobilized, steady state (Req)
# Chain of soluble mouse FcRn (smFcRn) (mouse) (Q61559 22-290): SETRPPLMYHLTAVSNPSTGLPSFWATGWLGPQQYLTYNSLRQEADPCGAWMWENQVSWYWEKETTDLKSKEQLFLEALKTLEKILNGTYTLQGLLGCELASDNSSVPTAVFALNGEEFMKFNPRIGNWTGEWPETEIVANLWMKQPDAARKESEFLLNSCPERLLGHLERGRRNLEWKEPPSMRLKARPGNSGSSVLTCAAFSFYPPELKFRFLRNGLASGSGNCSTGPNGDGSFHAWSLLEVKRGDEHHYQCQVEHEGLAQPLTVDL
# Chain of shFcRn heterodimer produced by GeneArt AG (human) (P55899 24-290 limits assumed, chain 1 of 2): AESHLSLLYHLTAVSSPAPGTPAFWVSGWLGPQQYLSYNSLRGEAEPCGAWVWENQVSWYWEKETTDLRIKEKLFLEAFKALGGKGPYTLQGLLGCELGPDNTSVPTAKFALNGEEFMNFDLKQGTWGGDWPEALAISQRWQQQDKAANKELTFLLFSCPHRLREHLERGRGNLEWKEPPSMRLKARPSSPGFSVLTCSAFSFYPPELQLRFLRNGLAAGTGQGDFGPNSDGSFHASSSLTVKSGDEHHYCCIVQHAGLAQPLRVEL
# Chain of shFcRn heterodimer produced by GeneArt AG (human) (chain, as listed by the source limits assumed, chain 2 of 2): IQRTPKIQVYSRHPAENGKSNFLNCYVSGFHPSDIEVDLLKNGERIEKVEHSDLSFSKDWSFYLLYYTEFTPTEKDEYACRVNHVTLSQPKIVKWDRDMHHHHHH
Kd [1] [µM],Kd [2] [µM],Substance
0.02,–,HSA K573P conjugated to horseradish peroxidase (from UniProt P00433 31-338)
–,86.2,recombinant human serum albumin (RECOMBUMIN) (from UniProt P02768 25-609) (ligand; other documents disagree on this pair)
